US20230056099
pIC50: −log10 of the molar value.

Target: thrombin (human alpha-thrombin) (UniProt P00734+P00734)
Test: inhibition
Details: circular (5' and 3' ends joined); 0.1 nM thrombin, 2 uM fibrinogen, absorbance 350 nm; N = random nucleotide

Sequence	pIC50
ATCTCGANNNNNNNTAGGGGGCGCGAACATACGCGGTTGGTGTGGTTGGCTGACAATACTCGTTTTTGGTGTCTCGGAT [M2]	9.44
ATCTCGACTAGTCATAGGGGGCGCGAACATACGCGGTTGGTGTGGTTGGCTGACAANNNNNNNTTTTGGTGTCTCGGAT [M3]	9.74
NNNNNNNCTAGTCATAGGGGGCGCGAACATACGCGGTTGGTGTGGTTGGCTGACAATACTCGTTTTTGGTGTCTCGGAT [M1]	9.43
ATCTCGACTAGTCATAGGGGGCGCGAACATACGCGGTTGGTGTGGTTGGCTGACAATACTCGTTTTTGGTNNNNNNNNN [M5]	9.96
ATCTCGACTAGTCATAGGGGGCGCGAACATACGCGGTTGGTGTGGTTGGCTGACAATACTCGTNNNNNNNGTCTCGGAT [M4]	10.00

Same assay, conditions: circular; 0.1 nM thrombin, 2 uM fibrinogen, absorbance 350 nm; random pool carrying fixed GGTTGGTGTGGTTGG core

Sequence	pIC50
ATCTCGACTAGTCANNNNNNNNNNNNNNNNNNNNGGTTGGTGTGGTTGGNNNNNNNNNNNNNNNNNNNNTGTCTCGGAT [Lib (random circular nucleic acid)]	7.14
